Test: yeast display, Sf9 membrane polyspecificity reagent, FACS + sequencing; frameworks hold sequencing errors
Summary of the method: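 In a synthetic yeast display library (Saccharomyces cerevisiae BJ5465), nanobody expression was induced with galactose for 36–48 hours. FACS gates were set low and high (top ~1%) using anti-HA fluorescence for expression and streptavidin fluorescence for binding of the Sf9 membrane reagent. Each polyreactivity label is drawn from the gate of origin.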

Row | Sequence | polyreactivity (PSR sort gate)
1 | QVQLVESGGGLVQAGGSLRLSCAASGSIFTTNAMGWYRQAPGKERELVARIDRAGSTYYADSVKGRFTISRDNAKNTVYLQMNSLKPEDTSVYYCAVEAVLSRPYATKFDYWGQGTEVTVSS | low polyreactivity
2 | QVQLVESGGGLVQAGGSLRLSCAASGSIFTTYAMGWYRQAPGKERELVAVISRRGGSTYYADSVKGRFTISRDNAKNTVYLQMNSLKPEDTAVYYCNAAYVWYRIFVRRDYWGQGTQVTVSS | high polyreactivity
3 | QVQLVESGGGLVQAGGSLRLSCAASGSIFTVNAMGWYRQAPGKERELVATISVTGGSTYADSVKGRFTISRENAKNTVYLQMNSLKPEDTAVYYCAADKTVRWDFDYRGQGTQVTVSS | low polyreactivity
4 | QVQLVESGGGLVQAGGSLRLSCAASGSIFTVYAIGWYRQAPGKEREFVADIDSGGTYYADSVKGRFTISRDNAKNTVYLQMNSLKPEDSAVYYCAALAALDYGQLYLADDDYWGQGTQVTVSS | low polyreactivity
5 | QVQLVESGGGLVQAGGSLRLSCAASGSIFTWNVKGWYRQAPGKERELVAAISSGGSTNYADSVKGRFTISRDNAKNTVYLQMNSLKPEDTAVYYCATYFRVWYRSYDYWGQGTQVTVSS | high polyreactivity
6 | QVQLVESGGGLVQAGGSLRLSCAASGSIFTWYAMGWSRQAPGKERELVAAITRGGSTYADSVKGRFTISRDNANYTVYLQMNSLKPADTAVYYCNAVYGVYDFNYWGQGTQVTVSS | low polyreactivity
7 | QVQLVESGGGLVQAGGSLRLSCAASGSIFTWYAMGWYRQAPGKERELVAAISEDGGSTYYADSVKGRFTISRDNAKNTVYLQMNSLKPEDTAVYYCATPVASVTGYDYWGQGTQVTVSS | low polyreactivity
8 | QVQLVESGGGLVQAGGSLRLSCAASGSIFTWYAMGWYRQAPGKERELVAAITTGGDTYYADSVKGRFTISRDNAKNTVYLQMNSLKPEDTAVYYCAATPTYWYLCSPYDYWGQGTQVTVSS | low polyreactivity
9 | QVQLVESGGGLVQAGGSLRLSCAASGSIFTYNAMGWYRQAPGKERELVAAISRGGGRTYYADSVKGRFTISRDNAKNTVYLQMNSLKPEDTAVYYCAADIYVRQRYPYYYWGQGTQVTVSS | high polyreactivity
10 | QVQLVESGGGLVQAGGSLRLSCAASGSIFTYNAMGWYRQAPGKERELVAAITSSSGSSTYADSVKGRFTISRDNAKNTVYLQMNSLKPEDTAVYYCAAPILSFPSPYVQYDYWGQGTQVTVSS | low polyreactivity
11 | QVQLVESGGGLVQAGGSLRLSCAASGSIFTYNTMGWYRQAPGKERELVAAISSGGRTYYADSVKGRFTISRDNAKNTVYLQMNSLKPEDTAVYYCAARYYFWGQGTQVTVSS | high polyreactivity
12 | QVQLVESGGGLVQAGGSLRLSCAASGSIFTYYAMGWYRQAPGKEREFVAAISRRGGSTYYADSVKGRFTISRDNAKNTVYLQMNSLKPEDTAVYYCAADRWTRTLVKVIGRYYYWGQGTQVTVSS | high polyreactivity
13 | QVQLVESGGGLVQAGGSLRLSCAASGSIFTYYAMGWYRQAPGKERELVAAISLDGGSTYYADSVKGRFTISRDNAKNTVYLQMNSLKPEDTAVYYCAADYRFFPYTYLYDYWGQGTQVTVSS | low polyreactivity
14 | QVQLVESGGGLVQAGGSLRLSCAASGSIFTYYAMGWYRQAPGKERELVAAISRRGTRTYYADSVKGRFTISRDNAKNTVYLQMNSLKPEDTAVYYCAAEYTETGTAKMEYWGQGTQVTVSS | high polyreactivity
15 | QVQLVESGGGLVQAGGSLRLSCAASGSIFTYYAMGWYRQAPGKERELVAAITSTGGSTYYADSVKGRFTISRDNAKNTVYLQMNSQKPEDTAVYYCATDYGYYDYWGQGTQVTVSS | low polyreactivity
16 | QVQLVESGGGLVQAGGSLRLSCAASGSIFTYYVMGWYRQAPGKERELVAAITISGGSTYYADSVKGRFTISRDNAKNTVYLQMNRLNPEDTAVYYCAAEEVYYEADGFLYSYDYWGKGTQVTVSS | high polyreactivity

Row | Sequence | polyreactivity (PSR sort gate)
17 | QVQLVESGGGLVQAGGSLRLSCAASGSIFVANAMGWYRQAPGKERELVAVISSGGGSTSYADSVKGRFTISRDNAKNTVYLQMSSLKPEDTAVYDCTRRRYDAGSTMGYWGQGTQVTVSS | low polyreactivity
18 | QVQLVESGGGLVQAGGSLRLSCAASGSIFVAYAMGWDRQAPGKERELVAAISSSGGTTYYAYSVKGRFTISRDNAKNTVYLQMNSLKPEDTAVYYCAARDYKYYYWGQGTQVTVSS | high polyreactivity
19 | QVQLVESGGGLVQAGGSLRLSCAASGSIFVAYAMGWYRQAPGKERELVAAITAVGSTYYADSVKGRFTISRDNAKNTVYLQMNSLKAEDTAVYYCAKRQLRPTYRYGYWGQGNQVTVSS | low polyreactivity
20 | QVQLVESGGGLVQAGGSLRLSCAASGSIFVDNAMGWYRQAPGKEREMVAAISRRGGSTYYADSVKGRFTISRDNAKNTVYLQMNSLKPEDTAVYYCNKKNIQFYQGASDYWGQGTQVTVSS | high polyreactivity
21 | QVQLVESGGGLVQAGGSLRLSCAASGSIFVDNAMGWYRQAPGKETQLVAAIRSRDTSTYYADSVKGRFSISLDNAKNTVYLQMNSLKPEDTAVYYCAARTSKRVSQYNYWGQGTQVTVSS | high polyreactivity
22 | QVQLVESGGGLVQAGGSLRLSCAASGSIFVFYAMGWYRQAPGKERELVASITSSGGSTYYADSVKGRFTISRDNAKNTVYLQMNSLKPEDTAVYYCAARKYRNPYYYRYYYWGQGTQVTVSS | high polyreactivity
23 | QVQLVESGGGLVQAGGSLRLSCAASGSIFVGNAMGLYRQAPGKERELVAAISSSGGRTFYADSVKGRFTISRDIAKNSVYLQMNSLKPEDTAVYYCAAYLWSYVFNLYEYWGQGTQVTVSS | high polyreactivity
24 | QVQLVESGGGLVQAGGSLRLSCAASGSIFVGNAMGWYRQAPGKERELVAAISSSGGSTYYADSVKGRFTISRDYAKNSVYLQMNSLKPEYTAVYDCAADTYSTSGYYYWGQGTQVTVSS | low polyreactivity
25 | QVQLVESGGGLVQAGGSLRLSCAASGSIFVGYAMGLYRQAPGKERELVAAISASGGRTYYADSVKGRFTISRDNAKNTVYLQMNSLKPEDTAVYYCATDDYWGRGTQVTVSS | high polyreactivity
26 | QVQLVESGGGLVQAGGSLRLSCAASGSIFVGYAMGWYRQAPGKERELVAAISKSGGSTYYADSVKGRYTISRDNAKNTVYLQMNSLKPEDTAVYYCAAYPVRLVYSQHRYQYDYWGQGTQVTVSS | high polyreactivity
27 | QVQLVESGGGLVQAGGSLRLSCAASGSIFVGYAMGWYRQAPGKERELVAAISVRGASTYYADSVKGRFTISRDNAKNTVYLQMNSLKPEDTAVYYCAARGNTPRTRRYGYWGQGTQVTVSS | high polyreactivity
28 | QVQLVESGGGLVQAGGSLRLSCAASGSIFVGYAMGWYRQAPGKERELVASINYSGGTTDYADSVKGRFTISRDNAKNTVYLQMNSLKPEDTAVYYCAKTAVDWSFTKGVDYDYWGQGTQVTVSS | low polyreactivity
29 | QVQLVESGGGLVQAGGSLRLSCAASGSIFVHYAMGWYIQEPGKERELVARISWRGNTYYADSVKGRFTISRDNAKNTVYLQMNSLKPEDTAVYYCAKDVRRSLVNWDVVYPHGYWGQGTQVTVSS | low polyreactivity
30 | QVQLVESGGGLVQAGGSLRLSCAASGSIFVHYAMGWYRQAPGKERELVAAITSSGGRTYYADSVKGRFTISRDNAKNTVYLQMNSLKPEDTAVYYCNAAKYLFRHGFLSAGDMYYWGQGTQVTVSS | high polyreactivity
31 | QVQLVESGGGLVQAGGSLRLSCAASGSIFVHYAMGWYRQAPGKERELVARISWRGNTYYADSVKGRFTISRDNAKNTVYLQMNSLKPEDTAVYYCAAEYFWYYYYLMDYWGQGTQVTVSS | low polyreactivity
32 | QVQLVESGGGLVQAGGSLRLSCAASGSIFVINPMGWYRPAPGKERELVATIRARAGSTYYADSVKGRFTISRDNAKNSVYLQMNSLKPEDTAVYYCAARLKSYRVDYWGQGTQVTVSS | high polyreactivity

Source: the nanobody polyreactivity screen of Harvey et al. (2022)
